{
  "source": "paper PMC8685454",
  "key": {"[1]": {"target": "commercial Spike protein, active Recombinant 2019-nCoV Spike Protein, RBD, His Tag (SARS-CoV-2) (UniProt P0DTC2)", "test": "ELISA"}, "[2]": {"target": "plant produced deglycosylated Receptor Binding Domain of Spike protein of SARS-CoV-2 (SARS-CoV-2) (UniProt P0DTC2)", "test": "ELISA"}},
  "note": "pKd: −log10 of the molar value.",
  "data": [
    {"substance": "plant produced Endo H in vivo deglycosylated soluble (truncated) human ACE2 (receptor)", "values": [
      {"measurement": "pKd", "setting": "[1]", "value": 8.33},
      {"measurement": "pKd", "setting": "[2]", "value": 8.89}
    ]}
  ]
}
